From patent publication US20220177587A1, “METHODS AND USES OF VARIANT CD80 FUSION PROTEINS AND RELATED CONSTRUCTS” (Alpine Immune Sciences, Inc., priority 2018, published 2022)
Changes are numbered by the printed parent chain. In names and notes the source's numbering stands.

B1: H18Y/E35D/M47L/Y53F/V68M/A71G (protein, UniProt P33681 35-288, looked up, variant H18Y E35D M47L Y53F V68M A71G)
T-lymphocyte activation …: VIHVTKEVKEVATLSCGYNVSVEELAQTRIYWQKDKKMVLTMMSGDLNIWPEFKNRTIFDITNNLSIMILGLRPSDEGTYECVVLKYEKDAFKREHLAEVTLSVKADFPTPSISDFEIPTSNIRRIICSTSGGFPEPHLSWLENGEELNAINTTVSQDPETELYAVSSKLDFNMTTNHSFMCLIKYGHLRVNQTFNWNTTKQEHFPDNLLPSWAITLISVNGIFVICCLTYCFAPRCRERRRNERLRRESVRPV
B2: H18Y/E35D/V68M/T79M/L85M (protein, UniProt P33681 35-288, looked up, variant H18Y E35D V68M T79M L85M)
T-lymphocyte activation …: B1 T-lymphocyte activation … with L47M, F53Y, G71A, T79M, L85M
B3: H18Y/V22D/E35D/M47V/N48K/V68M (protein, UniProt P33681 35-288, looked up, variant H18Y V22D E35D M47V N48K V68M)
T-lymphocyte activation …: B1 T-lymphocyte activation … with V22D, L47V, N48K, F53Y, G71A
B4: Q33R/E35D/M38I/M47L/V68M (protein, UniProt P33681 35-288, looked up, variant Q33R E35D M38I M47L V68M)
T-lymphocyte activation …: B1 T-lymphocyte activation … with Y18H, Q33R, M38I, F53Y, G71A
B5: T13R/Q33L/E35D/M47L/V68M/L85M (protein, UniProt P33681 35-288, looked up, variant T13R Q33L E35D M47L V68M L85M)
T-lymphocyte activation …: B1 T-lymphocyte activation … with T13R, Y18H, Q33L, F53Y, G71A, L85M
B6: T13R/Q33L/E35D/M47V/T62S/V68M/L85M (protein, UniProt P33681 35-288, looked up, variant T13R Q33L E35D M47V T62S V68M L85M)
T-lymphocyte activation …: B1 T-lymphocyte activation … with T13R, Y18H, Q33L, L47V, F53Y, T62S, G71A, L85M
B7: T13R/Q33R/E35D/M38I/M47L/V68M (protein, UniProt P33681 35-288, looked up, variant T13R Q33R E35D M38I M47L V68M)
T-lymphocyte activation …: B1 T-lymphocyte activation … with T13R, Y18H, Q33R, M38I, F53Y, G71A
B8: T13R/Q33R/E35D/M38I/M47L/V68M/E95V/L97Q (protein, UniProt P33681 35-288, looked up, variant T13R Q33R E35D M38I M47L V68M E95V L97Q)
T-lymphocyte activation …: B1 T-lymphocyte activation … with T13R, Y18H, Q33R, M38I, F53Y, G71A, E95V, L97Q
B9: T13R/Q33R/E35D/M38I/M47L/V68M/L85M (protein, UniProt P33681 35-288, looked up, variant T13R Q33R E35D M38I M47L V68M L85M)
T-lymphocyte activation …: B1 T-lymphocyte activation … with T13R, Y18H, Q33R, M38I, F53Y, G71A, L85M
B10: T13R/Q33R/E35D/M47L/V68M (protein)
chain: VIHVTKEVKEVARLSCGHNVSVEELAQTRIYWRKDKKMVLTMMSGDLNIWPEYKNRTIFDITNNLSIMILALRPSDEGTYECVVLKYEKDAFKREHLAEVTLSVKADFPTPSISDFETPTSNIRRIICSTSGGFPEPHLSWLENGEELNAINTTVSQDPETELYAVSSKLDFNMTTNHSFMCLIKYGHLRVNQTFNWNTTKQEHFPDN
modifications: CD80 v381 ECD
B11: E24D/E35D/M47L/V68M/E95V/L97Q (protein, UniProt P33681 35-288, looked up, variant E24D E35D M47L V68M E95V L97Q)
T-lymphocyte activation …: B1 T-lymphocyte activation … with Y18H, E24D, F53Y, G71A, E95V, L97Q
B12: T13R/Q33R/E35D/M47L/V68M/L85M (protein)
chain: B10 chain with L85M
modifications: CD80 v382 ECD

Legend:
CD28 [1] = target: T1, CD28 (Homo sapiens, UniProt P10747); experiment: Flow binding to Jurkat/IL2 reporter cells (CD28); set-up: host or cells: Jurkat cells expressing an IL-2-luciferase reporter; details: 33.3 nM; for CD28 MFI at 33.3 nM: Jurkats (CD28)
Outline: (§1)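 Cells were first blocked in PBS with 1% BSA and 0.1% sodium azide. Primary staining with fusion protein ran 45 min on ice, and secondary staining with PE anti-human Fc at 1:150 ran 30 min on ice.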

CD28 [2] = target: T1, CD28; experiment: Jurkat/IL2 + CHO/OKT3 +/- PD-L1 reporter assay: PD-L1-dependent CD28 costimulation; assay type: cell-based; set-up: host or cells: Jurkat cells expressing an IL-2-luciferase reporter; details: Jurkat/IL2 + CHO/OKT3/PD-L1, 5.0 nM
Outline: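 Readout is relative luminescence from lysed cocultures: test protein given 15 min at room temperature to Jurkat cells before adding CHO artificial APCs displaying OKT3 alone or OKT3 plus PD-L1, then 5 h at 37 °C, 5% CO2.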

huCTLA4 = huCTLA4 (Homo sapiens, UniProt P16410); experiment: Flow binding to CHO cells stably expressing CTLA4; set-up: huCTLA4 and huPD-L1, full-length mammalian surface expression constructs were generated; expressed in transfected cells; host or cells: CHO cells, lentiviral transduction, sorted to >98% purity; details: 33.3 nM; for CTLA4 MFI at 33.3 nM: CHO cells stably expressing CTLA4
Outline: as §1

huPD-L1 = huPD-L1 (Homo sapiens, UniProt Q9NZQ7); experiment: Flow binding to CHO cells stably expressing PD-L1; set-up: huCTLA4 and huPD-L1, full-length mammalian surface expression constructs were generated; expressed in transfected cells; host or cells: CHO cells, lentiviral transduction, sorted to >98% purity; details: for PD-L1 Fold change to WT CD80 / PD-L1 MFI at 33.3 nM: 33.3 nM; for PD-L1 MFI at 33.3 nM: CHO cells stably expressing PD-L1; for Ratio of PDL1:CD28: MFI at 33.3 nM
Outline: as §1

[3] = Table E11, listed as WT CD80 ECD-Fc = 1.0
[4] = Table E16, listed as CD80 WT IgV-Fc = 1.0

Sequence of huCTLA4 (P16410 36-223): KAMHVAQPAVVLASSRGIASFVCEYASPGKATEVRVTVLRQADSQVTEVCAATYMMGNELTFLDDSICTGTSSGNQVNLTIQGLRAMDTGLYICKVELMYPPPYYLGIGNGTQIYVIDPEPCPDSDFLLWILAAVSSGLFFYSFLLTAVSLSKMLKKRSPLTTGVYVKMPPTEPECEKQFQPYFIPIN
Sequence of huPD-L1 (Q9NZQ7 19-290): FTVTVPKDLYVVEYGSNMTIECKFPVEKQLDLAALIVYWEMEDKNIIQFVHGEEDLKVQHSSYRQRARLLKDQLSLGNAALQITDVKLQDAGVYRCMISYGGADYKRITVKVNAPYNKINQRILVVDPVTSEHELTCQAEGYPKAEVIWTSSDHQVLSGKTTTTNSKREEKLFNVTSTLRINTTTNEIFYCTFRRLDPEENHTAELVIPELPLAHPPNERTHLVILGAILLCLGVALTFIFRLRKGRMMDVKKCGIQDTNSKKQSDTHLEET

Molecule | CD28 Fold change to WT CD80 (CD28 [1]; [3]) | CD28 MFI at 33.3 nM (CD28 [1]; Table E11) | CD28 Fold change to WT CD80 (CD28 [1]; [4]) | CD28 MFI at 33.3 nM (CD28 [1]; Table E16, consensus variants) | Fold Increase over WT CD80-IgV-Fe (CD28 [2]; Table E13) | Relative Luciferase Units (RLU), CD80 Cone 5.0 nM (CD28 [2]; Table E13) [RLU] | Fold Increase over WT CD80-IgV-Fe (CD28 [2]; Table E17) | Relative Luciferase Units (RLU), CD80 Cone 5.0 nM (CD28 [2]; Table E17, consensus variants) [RLU] | CTLA4 Fold change to WT CD80 (huCTLA4; [3]) | CTLA4 MFI at 33.3 nM (huCTLA4; Table E11) | CTLA4 Fold change to WT CD80 (huCTLA4; [4]) | CTLA4 MFI at 33.3 nM (huCTLA4; Table E16, consensus variants) | PD-L1 Fold change to WT CD80 (huPD-L1; [3]) | PD-L1 MFI at 33.3 nM (huPD-L1; Table E11) | Ratio of PDL1:CD28 (huPD-L1; Table E11) | PD-L1 Fold change to WT CD80 (huPD-L1; [4]) | Ratio of PDL1:CD28 (huPD-L1; Table E16) | PD-L1 MFI at 33.3 nM (huPD-L1; Table E16, consensus variants)
B1 | 0.5 | 15.7 | 11.6 | 478 | 0.3 | 120 | 5.7 | 2277 | 0.1 | 146 | 18.7 | 19528 | 99.1 | 5105 | 325.2 | 135.1 | 20.0 | 9576
B2 | 33.2 | 1041 | – | – | 2.9 | 1161 | – | – | 9.3 | 16287 | – | – | 289.5 | 14907 | 14.3 | – | – | –
B3 | 8.2 | 257 | – | – | 2.7 | 1072 | – | – | 9.0 | 15798 | – | – | 249.8 | 12867 | 50.1 | – | – | –
B4 | 0.5 | 15 | – | – | 0.4 | 147 | – | – | 0.1 | 107 | – | – | 320.4 | 16502 | 1107.5 | – | – | –
B5 | 0.5 | 15.7 | – | – | 0.4 | 153 | – | – | 0.1 | 141 | – | – | 62.7 | 3228 | 205.6 | – | – | –
B6 | 0.5 | 16 | – | – | 0.3 | 136 | – | – | 0.1 | 105 | – | – | 77.0 | 3968 | 248.0 | – | – | –
B7 | 0.4 | 13.8 | – | – | 0.4 | 152 | – | – | 0.1 | 193 | – | – | 87.0 | 4482 | 324.8 | – | – | –
B8 | 35.4 | 1111 | – | – | 2.5 | 993 | – | – | 11.8 | 20652 | – | – | 372.0 | 19157 | 17.2 | – | – | –
B9 | 0.5 | 14.2 | – | – | 0.4 | 153 | – | – | 12.6 | 22011 | – | – | 21.5 | 1106 | 77.9 | – | – | –
B10 | 0.4 | 14.1 | – | – | 1.0 | 399 | – | – | 11.8 | 20738 | – | – | 285.0 | 14680 | 1041.1 | – | – | –
B11 | 0.5 | 15 | – | – | 2.7 | 1087 | – | – | 8.8 | 15505 | – | – | 362.1 | 18649 | 1268.6 | – | – | –
B12 | 3.6 | 112 | – | – | 2.9 | 1160 | – | – | 7.7 | 13438 | – | – | 367.7 | 18938 | 169.1 | – | – | –
